This note sets out measurements from publication PMC10338342, “Cooperation between bHLH transcription factors and histones for DNA access” (Nature, 2023).

B1: mouse CLOCK bHLH (residues 29–89) with an additional C-terminal tryptophan (domain or fragment)
chain: DDKDKAKRVSRNKSEKKRRDQFNVLIKELGSMLPGNARKMDKSTVLQKSIDFLRKHKETTAW
notes: CLOCK, mouse, bHLH, residues 29-89; additional tryptophan engineered at the C terminus to allow for UV detection; source: E. coli vector (pET28-derived), expressed and purified separately (HisTrap HP)
B2: CLOCK bHLH PAS-AB (residues 26-395), chain of the CLOCK-BMAL1 heterodimer (domain or fragment, mouse, UniProt O08785 26-395, looked up)
chain: VEEDDKDKAKRVSRNKSEKKRRDQFNVLIKELGSMLPGNARKMDKSTVLQKSIDFLRKHKETTAQSDASEIRQDWKPTFLSNEEFTQLMLEALDGFFLAIMTDGSIIYVSESVTSLLEHLPSDLVDQSIFNFIPEGEHSEVYKILSTHLLESDSLTPEYLKSKNQLEFCCHMLRGTIDPKEPSTYEYVRFIGNFKSLTSVSTSTHNGFEGTIQRTHRPSYEDRVCFVATVRLATPQFIKEMCTVEEPNEEFTSRHSLEWKFLFLDHRAPPIIGYLPFEVLGTSGYDYYHVDDLENLAKCHEHLMQYGKGKSCYYRFLTKGQQWIWLQTHYYITYHQWNSRPEFIVCTHTVVSYAEVRAERRRELGIEESL
notes: CLOCK, mouse, bHLH PAS-AB, residues 26-395; Always present as part of m1; made a molecule of its own for the contacts that the structures and cross-links assign to CLOCK
B3: CLOCK-BMAL1 bHLH PAS-AB heterodimer (complex)
chain 1: B2 chain
chain 2: not shown
notes: CLOCK, mouse, bHLH PAS-AB, residues 26-395; BMAL1, mouse, bHLH PAS-AB, residues 62-441; also called CB; CLOCK-BMAL1 WT; source: insect cells (Spodoptera frugiperda or Hi5), purified (Ni-NTA, TEV cleavage, heparin, Superdex 200); copies: 1 + 1
B4: BMAL1 bHLH PAS-AB (residues 62-441), chain of the CLOCK-BMAL1 heterodimer (domain or fragment)
chain: not shown
notes: BMAL1, mouse, bHLH PAS-AB, residues 62-441; Always present as part of m1; made a molecule of its own for the contacts that the structures and cross-links assign to BMAL1

The target of series [1] is T1, mouse BMAL1 bHLH (residues 73–135) with an additional C-terminal tryptophan (mouse, UniProt Q9WTL8 73-135).
T1 construct: BMAL1, mouse, bHLH, residues 73-135; additional tryptophan engineered at the C terminus to allow for UV detection; source: E. coli vector (pET28-derived), expressed and purified separately (HisTrap HP)
Description: SEC; CLOCK bHLH and BMAL1 bHLH purified separately, mixed at equimolar ratios, about one hour on ice, S75 10/300 GL column. The conditions noted are these: both partners purified. Background: In gel filtration, larger molecules generally elute earlier.

In series [2] the target is T2, histone H4 (human), in the nucleosome (human, UniProt P62805 1-103).
T2 construct: Always part of m4; source: in the reconstituted nucleosome
In words: cryo-EM structure; CLOCK-BMAL1 on the endogenous Por enhancer nucleosome with tandem E-boxes 7 bp apart (1:3), GraFix cross-linked; 3.8 Å overall. To be noted: both partners purified.

For series [3], the target named is B4. In words: cryo-EM structure; CLOCK-BMAL1 on a W601-variant nucleosome with a solvent-exposed E-box at SHL+5.8 (1:1.5 NCP:TF), GraFix glutaraldehyde cross-linked; 3.6 Å overall, PAS domains 9-11 Å. The conditions noted are these: both partners purified.
Series [4] deals with the molecule itself. Description: cryo-EM structure; CLOCK-BMAL1 on the endogenous Por enhancer nucleosome with tandem E-boxes 7 bp apart (1:3), GraFix cross-linked; 3.8 Å overall.
Series [5] has as its target histone H3.1 (human), in the nucleosome (human, UniProt P68431 1-136). Description: cross-linking; XL-MS with DSSO, TF and nucleosome mixed 1.5:1; CLOCK-BMAL1 with NCP SHL−6.2. The conditions noted are these: both partners purified.
The target in series [6] is T2, histone H4 (human), in the nucleosome. Description: cryo-EM structure; CLOCK-BMAL1 on a W601-variant nucleosome with a histone-facing E-box at SHL−6.2 (1:3 NCP:TF), GraFix cross-linked; 3.8 Å overall; PAS domains placed by Rosetta local docking with density scoring and one cross-link. The conditions noted are these: both partners purified.

Consider B1, for which the binding result in series [1] is recorded as “binds”.
Regarding B2, the binding result in series [2] and in series [3] was “binds” each time.
In the case of B3, the binding result in series [4] is on record as “binds”.
In the case of B4, the binding result in series [5] and in series [6] was “binds” throughout.
